The experiment has as its target antigen PIPA (human). Nature of the experiment: cell-based or functional assay.

B1: monoclonal antibody PIP (antibody, V domains shown)
V domain 1: DVQLQESGPDLVKPSQSVSLTCTVTGYSITSGYGWHWIRQFPGNKLEWMGCIHYSGSTNYNPSLKSRISVTRDTSKNQFFLQLNSVTTEDTATYYCARREYGNYAMDYWGQGTSVTVSS
V domain 2: DVQLQESGPDLVKPSQSVSLTCTVTGYSITSGYGWHWIRQFPGNKLEWMGCIHYSGSTNYNPSLKSRISVTRDTSKNQFFLQLNSVTTEDTATYYCARREYGNYAMDYWGQGTSVTVSS
In turn, B1 returned a decrease in cell proliferation of OV90 cells (MTT) with PIP at 10 ug/ml and MAb-ZAP saporin-linked secondary antibody of 50 percent.

The values above are taken from patent US7405061.
